Measurements taken from patent US20090176205, “Mutant proteins in the dna-binding domain of a telomeric protein, trf2, and telomeric dna mutants, and use of the complex structure of the trf2 dna-binding domain and telomeric dna” (published 2009).

T1: hTRF2-DBD dm (A471S/A484S) (Homo sapiens, UniProt Q15554 SEQ:1-63)
T1 chain: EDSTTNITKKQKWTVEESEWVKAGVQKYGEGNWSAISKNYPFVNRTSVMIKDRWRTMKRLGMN

T2: hTRF2-DBD K447R (Homo sapiens, UniProt Q15554 SEQ:1-63)
T2 chain: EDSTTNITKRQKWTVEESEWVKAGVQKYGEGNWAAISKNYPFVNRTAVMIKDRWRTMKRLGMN

T3: hTRF2-DBD R496K (Homo sapiens, UniProt Q15554 SEQ:1-63)
T3 chain: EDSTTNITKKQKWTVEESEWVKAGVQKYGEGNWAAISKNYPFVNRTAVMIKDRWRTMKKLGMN

T4: hTRF2-DBD A484S (Homo sapiens, UniProt Q15554 SEQ:1-63)
T4 chain: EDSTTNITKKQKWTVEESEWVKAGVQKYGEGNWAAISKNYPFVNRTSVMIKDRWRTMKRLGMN

T5: hTRF2-DBD A471S (Homo sapiens, UniProt Q15554 SEQ:1-63)
T5 chain: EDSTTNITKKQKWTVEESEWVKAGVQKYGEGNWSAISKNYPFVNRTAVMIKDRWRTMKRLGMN

T6: hTRF2-DBD qm (K447R/A471S/A484S/R496K) (Homo sapiens, UniProt Q15554 SEQ:1-63)
T6 chain: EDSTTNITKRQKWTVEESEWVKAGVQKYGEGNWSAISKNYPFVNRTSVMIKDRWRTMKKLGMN


Assays:
[1] = target: T7, hTRF1 (DNA-binding domain) (Homo sapiens, UniProt P54274 P54274:371-439); assay: SPR; 10 mM HEPES-KOH pH 6.8, 3 mM EDTA, 180 mM KCl, 0.003% Triton X-100, 293 K; conditions: label: biotin (13mer on SA chip)
T7 sequence (P54274 371-439, one chain of several): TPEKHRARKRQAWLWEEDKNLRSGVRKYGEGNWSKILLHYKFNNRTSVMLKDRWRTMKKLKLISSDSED
Experimental: The same experiments were performed on hTRF1 under the same conditions.
(§1) Affinity analysis was performed using a Biacore 3000 instrument. All experiments were performed at 293 K using a buffer containing 10 mM HEPES-KOH, 3 mM EDTA, 180 mM KCl and 0.003% Triton X-100 (v/v) (pH 6.8). Flow cells of an SA streptavidin sensor chip were coated with the 13mer oligonucleotide biotinylated. The proteins were injected into flow cells over 3-5 min at a flow rate of 10 μL/min until the reaction of protein with DNA had been equilibrated. Bound proteins were removed by a 30-sec wash with 2M KCl. An equilibrium dissociate constant (Kd) was calculated from a Scatchard analysis of the RU values in the equilibrium region of the sensorgram at each analyte concentration. The affinity data were analyzed using BIAevaluation ver. 3.2 software.

hTRF2-DBD wild type [2] = target: T8, hTRF2-DBD wild type (Homo sapiens, UniProt Q15554 SEQ:1-63); assay: SPR; pH 6.8, 180 mM KCl, 293 K; 1:1 complex also shown by NMR titration and structure; conditions: tags: N-terminal Met added; untagged, E. coli BL21(DE3) pET23b; label: biotin (13mer on SA chip)
Experimental: (§2) The same experiments were performed on the six mutants of hTRF2 under the same conditions. […] Further, the six mutants were analyzed by SPR for the three DNAs T3G, G7C and T9G, as well as tr13. As a result, Kd values for T3G are about 7 times higher than those values for tr13; and Kd values for T9G are about 100 times higher than those values for tr13. […] Since C7′ is changed to G7′ in G7C, Asp489 which recognizes C7′ has become incapable of recognizing DNA. Thus, interaction with DNA is assumed to be non-specific. Although the affinity to T9G is about 10 times lower than the affinity to G7C, differences in Kd values of individual mutants for DNA show relatively similar tendencies to those observed in tr13 and T3G. It is believed that the binding mode between the major groove and recognition helix is not changed and that only the affinity to T9G is merely very low.
as §1, with “KCl.” for “KCl. An equilibrium dissociate constant (Kd) was calculated from a Scatchard analysis of the RU values in the equilibrium region of the sensorgram at each analyte concentration. The affinity data were analyzed using BIAevaluation ver. 3.2 software.”

[3] = target: T1, hTRF2-DBD dm (A471S/A484S); assay: SPR; pH 6.8, 180 mM KCl, 293 K; conditions: tags: N-terminal Met added; untagged, E. coli BL21(DE3) pET23b; label: biotin (13mer on SA chip)
Experimental: as §2
as §1, with “KCl.” for “KCl. An equilibrium dissociate constant (Kd) was calculated from a Scatchard analysis of the RU values in the equilibrium region of the sensorgram at each analyte concentration. The affinity data were analyzed using BIAevaluation ver. 3.2 software.”

hTRF2-DBD K447R = target: T2, hTRF2-DBD K447R; assay: SPR; pH 6.8, 180 mM KCl, 293 K; conditions: tags: N-terminal Met added; untagged, E. coli BL21(DE3) pET23b; label: biotin (13mer on SA chip)
Experimental: as §2
as §1, with “KCl.” for “KCl. An equilibrium dissociate constant (Kd) was calculated from a Scatchard analysis of the RU values in the equilibrium region of the sensorgram at each analyte concentration. The affinity data were analyzed using BIAevaluation ver. 3.2 software.”

hTRF2-DBD R496K = target: T3, hTRF2-DBD R496K; assay: SPR; pH 6.8, 180 mM KCl, 293 K; conditions: tags: N-terminal Met added; untagged, E. coli BL21(DE3) pET23b; label: biotin (13mer on SA chip)
Experimental: as §2
as §1, with “KCl.” for “KCl. An equilibrium dissociate constant (Kd) was calculated from a Scatchard analysis of the RU values in the equilibrium region of the sensorgram at each analyte concentration. The affinity data were analyzed using BIAevaluation ver. 3.2 software.”

hTRF2-DBD A484S = target: T4, hTRF2-DBD A484S; assay: SPR; pH 6.8, 180 mM KCl, 293 K; conditions: tags: N-terminal Met added; untagged, E. coli BL21(DE3) pET23b; label: biotin (13mer on SA chip)
Experimental: as §2
as §1, with “KCl.” for “KCl. An equilibrium dissociate constant (Kd) was calculated from a Scatchard analysis of the RU values in the equilibrium region of the sensorgram at each analyte concentration. The affinity data were analyzed using BIAevaluation ver. 3.2 software.”

hTRF2-DBD A471S = target: T5, hTRF2-DBD A471S; assay: SPR; pH 6.8, 180 mM KCl, 293 K; conditions: tags: N-terminal Met added; untagged, E. coli BL21(DE3) pET23b; label: biotin (13mer on SA chip)
Experimental: as §2
as §1, with “KCl.” for “KCl. An equilibrium dissociate constant (Kd) was calculated from a Scatchard analysis of the RU values in the equilibrium region of the sensorgram at each analyte concentration. The affinity data were analyzed using BIAevaluation ver. 3.2 software.”

[4] = target: T6, hTRF2-DBD qm (K447R/A471S/A484S/R496K); assay: SPR; pH 6.8, 180 mM KCl, 293 K; conditions: tags: N-terminal Met added; untagged, E. coli BL21(DE3) pET23b; label: biotin (13mer on SA chip)
Experimental: as §2
as §1, with “KCl.” for “KCl. An equilibrium dissociate constant (Kd) was calculated from a Scatchard analysis of the RU values in the equilibrium region of the sensorgram at each analyte concentration. The affinity data were analyzed using BIAevaluation ver. 3.2 software.”

hTRF2-DBD wild type [5] = target: T8, hTRF2-DBD wild type; assay: SPR; pH 6.8, 180 mM KCl, 293 K; conditions: tags: N-terminal Met added; untagged, E. coli BL21(DE3) pET23b; label: biotin (13mer on SA chip)
Experimental: as §2
as §1, with “KCl.” for “KCl. An equilibrium dissociate constant (Kd) was calculated from a Scatchard analysis of the RU values in the equilibrium region of the sensorgram at each analyte concentration. The affinity data were analyzed using BIAevaluation ver. 3.2 software.”

[6] = target: T7, hTRF1 (DNA-binding domain); assay: SPR; pH 6.8, 180 mM KCl, 293 K; conditions: label: biotin (13mer on SA chip)
Experimental: as §2
as §1, with “KCl.” for “KCl. An equilibrium dissociate constant (Kd) was calculated from a Scatchard analysis of the RU values in the equilibrium region of the sensorgram at each analyte concentration. The affinity data were analyzed using BIAevaluation ver. 3.2 software.”

| Binder | Kd [1] [µM] | Kd (hTRF2-DBD wild type [2]) [µM] | Kd [3] [µM] | Kd (hTRF2-DBD K447R) [µM] | Kd (hTRF2-DBD R496K) [µM] | Kd (hTRF2-DBD A484S) [µM] | Kd (hTRF2-DBD A471S) [µM] | Kd [4] [µM] | Kd (hTRF2-DBD wild type [5]) [µM] | Kd [6] [µM] |
| --- | --- | --- | --- | --- | --- | --- | --- | --- | --- | --- |
| tr13 (dsDNA) DNA 1: GTTAGGGTTAGGG DNA 2: CCCTAACCCTAAC | 0.186 | 0.748 | 0.385 | 0.297 | 0.764 | 0.55 | 0.482 | 0.196 | – | – |
| T9G (dsDNA) DNA 1: GTTAGGGTGAGGG DNA 2: CCCTCACCCTAAC | – | – | 47.9 | 37 | 114 | 69.1 | 44.2 | 26.5 | 110 | 3.14 |
| T3G (dsDNA) DNA 1: GTGAGGGTTAGGG DNA 2: CCCTAACCCTCAC | – | – | 2.58 | 2.19 | 4.92 | 4.03 | 3.07 | – | 5.94 | 0.795 |
| G7C (dsDNA) DNA 1: GTTAGGCTTAGGG DNA 2: CCCTAAGCCTAAC | – | – | 33.8 | 24.5 | 87 | 50.7 | 32.3 | – | – | 12.2 |
